# Results as given in patent US20160137746A1, “METHODS FOR TREATING HIGH CARDIOVASCULAR RISK PATIENTS WITH HYPERCHOLESTEROLEMIA” (Sanofi Biotechnology, priority 2014, published 2016).
# System: high cardiovascular risk patients with hypercholesterolemia
# Assay: ODYSSEY LONG TERM: long-term safety and tolerability
# [1] = alirocumab patients with two consecutive LDL-C <25 mg/dL (n = 562), pre-specified analysis
# [2] = all alirocumab patients (n = 1550), pre-specified analysis
# Procedure: Safety parameters (adverse events [including adjudicated cardiovascular events], laboratory data, vital signs, and ECG) were assessed throughout the study.
# Safety endpoints assessed in this trial were: cardiovascular events; allergic events; local tolerability at injection site; other adverse events (including hemolytic anemia); laboratory tests: urinalysis, hematology (red blood cell count, red blood cell distribution width (RDW), reticulocyte count, hemoglobin, hematocrit, platelets, white blood cell count with differential blood count), standard chemistry (sodium, potassium, chloride, bicarbonate, calcium, phosphorous, urea nitrogen, creatinine, uric acid, total protein, albumin, LDH, γ Glutamyl Transferase [γGT]), Vitamin E (alpha tocopherol) and other Fat Soluble Vitamins, cortisol (and reflexive ACTH levels, as needed, followed by ACTH stimulation test, as needed), Gonadal Hormone Assessments, Hepatitis C antibody, liver panel (ALT, AST, ALP, and total bilirubin), and CPK; vital signs including heart rate and blood pressure; and 12-lead ECG.
# The safety population included all randomized patients who received at least one dose or part of a dose of the double-blind IMP.
# Safety analyses were descriptive, performed on the safety population according to treatment actually received. The safety analysis focused on the TEAE period defined as the time from the first dose of double-blind injection up to 70 days after the last double-blind injection. TEAE which developed, worsened or became serious or PCSA occurring after the patient's first injection in the open-label extension study (LTS13643) were not considered in the TEAE period. TEAE period was truncated at the common study cut-off date.
substance,measurement,setting,value
"Alirocumab: human anti-PCSK9 antibody; HCVR SEQ ID NO:1, LCVR SEQ ID NO:6; CDRs SEQ ID NOs 2/3/4/7/8/10","TEAEs by System-Organ-Class: Investigations (lab parameters), % of patients",[1],3.7% (21)
same,"TEAEs by System-Organ-Class: Metabolism and nutrition disorders, % of patients",[1],8.0% (45)
same,"TEAEs by System-Organ-Class: Musculoskeletal and connective tissue disorders, % of patients",[1],22.6% (127)
same,"TEAEs by System-Organ-Class: Neoplasms, benign, malignant (incl cysts/polyps), % of patients",[1],3.0% (17)
same,"TEAEs by System-Organ-Class: Nervous system disorders, % of patients",[1],11.2% (63)
same,"TEAEs by System-Organ-Class: Psychiatric disorders, % of patients",[1],4.3% (24)
same,"TEAEs by System-Organ-Class: Renal and urinary disorders, % of patients",[1],3.6% (20)
same,"TEAEs by System-Organ-Class: Reproductive system and breast disorders, % of patients",[1],2.0% (11)
same,"TEAEs by System-Organ-Class: Respiratory, thoracic, and mediastinal disorders, % of patients",[1],7.7% (43)
same,"TEAEs by System-Organ-Class: Skin and subcutaneous tissue disorders, % of patients",[1],6.9% (39)
same,"TEAEs by System-Organ-Class: Vascular disorders, % of patients",[1],5.0% (28)
same,"TEAEs leading to discontinuation, % of patients",[1],3.6% (20)
same,"TEAEs, % of patients",[1],71.9% (404)
same,"Treatment-emergent SAEs, % of patients",[1],14.6% (82)
same,"AE of special interest: All adjudicated cardiovascular events, % of patients",[2],4.0% (62)
same,"AE of special interest: General allergic reaction events, % of patients",[2],9.0% (140)
same,"AE of special interest: Haemolytic anaemia, % (n) of patients",[2],0
same,"AE of special interest: Neurocognitive disorders, % of patients",[2],1.2% (18)
same,"AE of special interest: Neurological events, % of patients",[2],4.2% (65)
same,"AE of special interest: Ophthalmological events, % of patients",[2],2.5% (38)
same,"AE of special interest: Treament-emergent local injection site reactions, % of patients",[2],5.8% (90)
same,"Neurocognitive AE: Amnesia, % of patients",[2],0.3% (5)
same,"Neurocognitive AE: Any neurocognitive disorder, % of patients",[2],1.2% (18)
same,"Neurocognitive AE: Confusion postoperative, % of patients",[2],<0.1% (1)
same,"Neurocognitive AE: Confusional state, % of patients",[2],0.3% (4)
same,"Neurocognitive AE: Dementia, % of patients",[2],<0.1% (1)
same,"Neurocognitive AE: Disorientation, % of patients",[2],<0.1% (1)
same,"Neurocognitive AE: Disturbance in attention, % of patients",[2],<0.1% (1)
same,"Neurocognitive AE: Frontotemporal dementia, % of patients",[2],<0.1% (1)
same,"Neurocognitive AE: Memory impairment, % of patients",[2],0.3% (5)
same,"Neurocognitive AE: Transient global amnesia, % of patients",[2],<0.1% (1)
same,"TEAE ALT increase, % of patients",[2],1.1%
same,"TEAE AST increase, % of patients",[2],0.2%
same,"TEAE Angina pectoris, % of patients",[2],2.1% (32)
same,"TEAE Arthralgia, % of patients",[2],4.5% (70)
same,"TEAE Atrial fibrillation, % of patients",[2],1.4% (22)
same,"TEAE Back pain, % of patients",[2],4.7% (73)
same,"TEAE Bronchitis, % of patients",[2],5.2% (80)
same,"TEAE CPK increase, % of patients",[2],0.5%
same,"TEAE Cellulitis, % of patients",[2],1.4% (22)
same,"TEAE Confusion, % of patients",[2],2.3% (35)
same,"TEAE Constipation, % of patients",[2],1.9% (30)
same,"TEAE Cough, % of patients",[2],3.2% (49)
same,"TEAE Depression, % of patients",[2],1.8% (28)
same,"TEAE Diabetes in patients with history of diabetes (Company MedDRA Query ""diabetes""), number as printed",[2],48
same,"TEAE Diabetes in patients with no history of diabetes (Company MedDRA Query ""diabetes""), number as printed",[2],19
same,"TEAE Diarrhea, % of patients",[2],5.3% (82)
same,"TEAE Dizziness, % of patients",[2],2.5% (38)
same,"TEAE Fall, % of patients",[2],2.8% (43)
same,"TEAE Fatigue, % of patients",[2],3.0% (47)
same,"TEAE Gastoenteritis, % of patients",[2],2.4% (37)
same,"TEAE Headache, % of patients",[2],4.8% (74)
same,"TEAE Hypertension, % of patients",[2],3.5% (54)
same,"TEAE Influenza, % of patients",[2],5.4% (84)
same,"TEAE Injection site reaction, % of patients",[2],5.7% (89)
same,"TEAE Muscle spasms, % of patients",[2],3.7% (58)
same,"TEAE Musculoskeletal pain, % of patients",[2],2.3% (36)
same,"TEAE Myalgia, % of patients",[2],4.9% (76)
same,"TEAE Nasopharyngitis, % of patients",[2],12.6% (196)
same,"TEAE Nausea, % of patients",[2],2.4% (37)
same,"TEAE Non-cardiac chest pain, % of patients",[2],1.8% (28)
same,"TEAE Osteoarthritis, % of patients",[2],2.3% (35)
same,"TEAE Pain in extremity, % of patients",[2],3.0% (46)
same,"TEAE Rhinitis, % of patients",[2],1.4% (22)
same,"TEAE Sinusitis, % of patients",[2],2.6% (40)
same,"TEAE Type-2 diabetes mellitus, % of patients",[2],1.7% (27)
same,"TEAE leading to death, % of patients",[2],0.5% (7)
same,"TEAEs by System-Organ-Class: Blood and lymphatic system disorders, % of patients",[2],2.4% (37)
same,"TEAEs by System-Organ-Class: Cardiac disorders, % of patients",[2],9.1% (141)
same,"TEAEs by System-Organ-Class: Ear and labyrinth disorders, % of patients",[2],2.0% (31)
same,"TEAEs by System-Organ-Class: Eye disorders, % of patients",[2],6.5% (100)
same,"TEAEs by System-Organ-Class: Gastrointestinal disorders, % of patients",[2],18.6% (288)
same,"TEAEs by System-Organ-Class: General disorders and administration site conditions, % of patients",[2],15.4% (238)
same,"TEAEs by System-Organ-Class: Injury, poisoning, and procedural complications, % of patients",[2],13.4% (207)
same,"TEAEs by System-Organ-Class: Investigations (lab parameters), % of patients",[2],6.1% (95)
same,"TEAEs by System-Organ-Class: Metabolism and nutrition disorders, % of patients",[2],9.1% (141)
same,"TEAEs by System-Organ-Class: Musculoskeletal and connective tissue disorders, % of patients",[2],27.2% (422)
same,"TEAEs by System-Organ-Class: Neoplasms, benign, malignant (incl cysts/polyps), % of patients",[2],2.5% (38)
same,"TEAEs by System-Organ-Class: Nervous system disorders, % of patients",[2],17.0% (264)
same,"TEAEs by System-Organ-Class: Psychiatric disorders, % of patients",[2],5.9% (91)
same,"TEAEs by System-Organ-Class: Renal and urinary disorders, % of patients",[2],4.6% (72)
same,"TEAEs by System-Organ-Class: Reproductive system and breast disorders, % of patients",[2],2.5% (38)
same,"TEAEs by System-Organ-Class: Respiratory, thoracic, and mediastinal disorders, % of patients",[2],11.0% (171)
same,"TEAEs by System-Organ-Class: Skin and subcutaneous tissue disorders, % of patients",[2],9.1% (141)
same,"TEAEs by System-Organ-Class: Vascular disorders, % of patients",[2],7.9% (122)
same,"TEAEs leading to discontinuation, % of patients",[2],6.2% (96)
same,"TEAEs, % of patients",[2],78.6% (1218)
same,"Treatment-emergent SAEs, % of patients",[2],16.5% (255)
same,Injection-site reactions,final analysis,5.9%
same,Myalgia,final analysis,5.4%
same,Neurocognitive events,final analysis,1.2%
same,Ophthalmological events,final analysis,2.9%
same,Patients with two consecutive calculated LDL cholesterol levels of less than 25 mg/dL (575 patients),final analysis,38%
same,Treatment-emergent adverse events,final analysis,81%
same,Treatment-emergent adverse events leading to study-drug discontinuation,final analysis,7.2%
same,"Alanine aminotransferase > 3 × ULN, % of patients",pre-specified analysis,1.6%
same,"Alanine aminotransferase > 3 × ULN, n/N of patients",pre-specified analysis,25/1532
same,"Aspartate aminiotransferase >3 × ULN, % of patients",pre-specified analysis,1.2%
same,"Aspartate aminiotransferase >3 × ULN, n/N of patients",pre-specified analysis,19/1532
same,"Creatine kinase > 3 × ULN, % of patients",pre-specified analysis,3.3%
same,"Creatine kinase > 3 × ULN, n/N of patients",pre-specified analysis,50/1507
same,Deaths reported during the study,pre-specified analysis,11 (0.7%) n (%)
same,Diarrhea (TEAE preferred term),pre-specified analysis,5.3%
same,Headache (TEAE preferred term),pre-specified analysis,4.8%
same,Hemolytic anaemia,pre-specified analysis,No case
same,Influenza (TEAE preferred term),pre-specified analysis,5.4%
same,Injection site reaction (TEAE preferred term),pre-specified analysis,5.7%
same,Nasopharyngitis (TEAE preferred term),pre-specified analysis,12.6%
same,Neurocognitive disorders,pre-specified analysis,18 (1.2%) n (%)
same,"Patients with LDL-C <25 mg/dL in two or more consecutive periods, share of population treated with alirocumab (562 out of 1550)",pre-specified analysis,36.3%
same,Patients with impaired glucose control at baseline defined as diabetic in the TEAE period,pre-specified analysis,36 (6.3%) n (%)
same,Patients with two consecutive calculated LDL-C values <25 mg/dL (<0.65 mmo/L),pre-specified analysis,562 (37.4%) n (%)
same,SOC gastrointestinal disorders,pre-specified analysis,18.6%
same,SOC general disorders and administration site conditions,pre-specified analysis,15.4%
same,"SOC injury, poisoning and procedural complications",pre-specified analysis,13.4%
same,SOC musculoskeletal and connective tissue disorders,pre-specified analysis,27.2%
same,SOC nervous system disorders,pre-specified analysis,17.0%
same,"SOC respiratory, thoracic and mediastinal disorders",pre-specified analysis,11.0%
same,Safety in patients with two consecutive calculated LDL-C <25 mg/dL,pre-specified analysis,No particular safety concern
same,TEAE leading to death,pre-specified analysis,7 (0.5%) n (%)
same,Time to first injection site reaction,pre-specified analysis,57 days
same,Treatment-emergent local injection site reaction,pre-specified analysis,90 (5.8%) n (%)
